Results reported in IntAct's records for PubMed 16924104.

B1: Polyunsaturated fatty acid 5-lipoxygenase (Homo sapiens), P09917 (parent)
chain: MPSYTVTVATGSQWFAGTDDYIYLSLVGSAGCSEKHLLDKPFYNDFERGAVDSYDVTVDEELGEIQLVRIEKRKYWLNDDWYLKYITLKTPHGDYIEFPCYRWITGDVEVVLRDGRAKLARDDQIHILKQHRRKELETRQKQYRWMEWNPGFPLSIDAKCHKDLPRDIQFDSEKGVDFVLNYSKAMENLFINRFMHMFQSSWNDFADFEKIFVKISNTISERVMNHWQEDLMFGYQFLNGCNPVLIRRCTELPEKLPVTTEMVECSLERQLSLEQEVQQGNIFIVDFELLDGIDANKTDPCTLQFLAAPICLLYKNLANKIVPIAIQLNQIPGDENPIFLPSDAKYDWLLAKIWVRSSDFHVHQTITHLLRTHLVSEVFGIAMYRQLPAVHPIFKLLVAHVRFTIAINTKAREQLICECGLFDKANATGGGGHVQMVQRAMKDLTYASLCFPEAIKARGMESKEDIPYYFYRDDGLLVWEAIRTFTAEVVDIYYEGDQVVEEDPELQDFVNDVYVYGMRGRKSSGFPKSVKSREQLSEYLTVVIFTASAQHAAVNFGQYDWCSWIPNAPPTMRAPPPTAKGVVTIEQIVDTLPDRGRSCWHLGAVWALSQFQENELFLGMYPEEHFIEKPVKEAMARFRKNLEAIVSVIAERNKKKQLPYYYLSPDRIPNSVAI
partner: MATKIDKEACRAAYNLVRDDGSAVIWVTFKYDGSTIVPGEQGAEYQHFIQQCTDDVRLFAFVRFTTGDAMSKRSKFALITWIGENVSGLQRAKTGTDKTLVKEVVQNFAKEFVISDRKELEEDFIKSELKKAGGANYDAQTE

Variants of: B1
Conditions: with cotl1_human COTL1, Q14019

| effect of a mutation on the interaction | Variant |
| --- | --- |
| disrupting interaction strength | W14A;W76A;W103A |
